Test results from PMC4963090 (PLoS ONE, 2016).

B1: motavizumab Fab (Fab, V domains shown)
VH: QVTLRESGPALVKPTQTLTLTCTFSGFSLSTAGMSVGWIRQPPGKALEWLADIWWDDKKHYNPSLKDRLTISKDTSKNQVVLKVTNMDPADTATYYCARDMIFNFYFDVWGQGTTVTVSS
VL: DIQMTQSPSTLSASVGDRVTITCSASSRVGYMHWYQQKPGKAPKLLIYDTSKLASGVPSRFSGSGSGTEFTLTISSLQPDDFATYYCFQGSGYPFTFGGGTKVEIK
notes: Antigenic site II-directed antibody; also called Fab motavizumab; source: HEK 293-F, co-transfected heavy and light chain plasmids; IgG on Protein A, digested with Lys-C or HRV3C protease, Fab purified by SEC
B2: D25 Fab (Fab, V domains shown)
VH: QVQLVQSGAEVKKPGSSVMVSCQASGGPLRNYIINWLRQAPGQGPEWMGGIIPVLGTVHYAPKFQGRVTITADESTDTAYIHLISLRSEDTAMYYCATETALVVSTTYLPHYFDNWGQGTLVTVSS
VL: DIQMTQSPSSLSAAVGDRVTITCQASQDIVNYLNWYQQKPGKAPKLLIYVASNLETGVPSRFSGSGSGTDFSLTISSLQPEDVATYYCQQYDNLPLTFGGGTKVEIK
notes: Antigenic site Ø-directed antibody; also called Fab D25; source: HEK 293-F, co-transfected heavy and light chain plasmids; IgG on Protein A, digested with Lys-C or HRV3C protease, Fab purified by SEC

How the values were obtained:
[1] = target: head-only RSV F immunogen i-273 (respiratory syncytial virus subtype A, strain A2) (UniProt P03420); assay: negative-stain electron microscopy; immunogens alone or mixed with D25 and/or motavizumab Fabs; 20 mM HEPES pH 7.0, 150 mM NaCl; uranyl formate; reference-free 2D class averages
[2] = target: head-only RSV F immunogen i-273 (respiratory syncytial virus subtype A, strain A2) (UniProt P03420); assay: BLI; head-only variants (50 ug/ml) held on anti-His-tag (HIS1K) tips; Fabs in solution 0.016-0.5 uM; 30°C, PBS + 1% BSA; global 1:1 fit
[3] = target: head-only RSV F immunogen i-210 (respiratory syncytial virus subtype A, strain A2 | bacteriophage T4) (UniProt P03420); assay: as above
[4] = target: T1, head-only RSV F immunogen i-693 (Human respiratory syncytial virus A, …, S155C | S190F | V207L | S290C | S155C | S190F | V207L | S290C); assay: as above; conditions: both partners purified
T1 construct: RSV fusion (F) glycoprotein, subtype A strain A2, F2 segment of domain III, first monomer; numbers count on: PDB entry 4JHW; linker between F2 and F1; RSV fusion (F) glycoprotein, subtype A strain A2, F1 segment, first monomer; linker between the two identical monomers; RSV fusion (F) glycoprotein, subtype A strain A2, F2 segment of domain III, second monomer; RSV fusion (F) glycoprotein, subtype …
T1 chain: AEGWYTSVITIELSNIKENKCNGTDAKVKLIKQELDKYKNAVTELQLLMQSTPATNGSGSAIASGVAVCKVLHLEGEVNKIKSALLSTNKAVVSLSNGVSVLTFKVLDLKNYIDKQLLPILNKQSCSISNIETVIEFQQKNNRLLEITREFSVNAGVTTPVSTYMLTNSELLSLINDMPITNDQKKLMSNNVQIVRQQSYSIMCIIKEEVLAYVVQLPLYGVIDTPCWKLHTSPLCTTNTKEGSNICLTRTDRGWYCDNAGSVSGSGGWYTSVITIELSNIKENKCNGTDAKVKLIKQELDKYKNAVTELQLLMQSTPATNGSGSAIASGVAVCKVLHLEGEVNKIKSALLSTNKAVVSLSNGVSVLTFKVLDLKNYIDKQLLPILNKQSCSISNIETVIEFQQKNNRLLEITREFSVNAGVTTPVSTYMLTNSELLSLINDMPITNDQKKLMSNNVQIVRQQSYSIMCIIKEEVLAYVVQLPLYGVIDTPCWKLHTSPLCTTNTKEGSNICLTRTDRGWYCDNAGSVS

[5] = target: T2, head-only RSV F immunogen i-447 (Human respiratory syncytial virus A, …, S190F | S155C | S290C); assay: as above; conditions: both partners purified
T2 construct: RSV fusion (F) glycoprotein, subtype A strain A2, F1 segment of domain III (head); numbers count on: PDB entry 4JHW; linker; RSV fusion (F) glycoprotein, subtype A strain A2, F2 segment of domain III (head); MTQ-F1-GGPG-F2; A signal peptide for secretion was added; Tags are thrombin-cleavable: held by the His-tag or Strep-tag in BLI; said to be cleaved before SEC, EM and immunisation; also called …
T2 chain: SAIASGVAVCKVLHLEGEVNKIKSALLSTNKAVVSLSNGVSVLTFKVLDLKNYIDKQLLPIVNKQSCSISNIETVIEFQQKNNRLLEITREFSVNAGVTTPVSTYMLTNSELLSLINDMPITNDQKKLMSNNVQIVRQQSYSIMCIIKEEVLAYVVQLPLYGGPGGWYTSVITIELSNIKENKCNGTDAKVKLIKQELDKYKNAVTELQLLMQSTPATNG

[6] = target: T3, head-only RSV F immunogen i-273 (Human respiratory syncytial virus A, …, S155C | S190F | V207L | S290C | L258K | L273K); assay: as above; conditions: both partners purified
T3 construct: RSV fusion (F) glycoprotein, subtype A strain A2, F1 segment of domain III (head); numbers count on: PDB entry 4JHW; linker; RSV fusion (F) glycoprotein, subtype A strain A2, F2 segment of domain III (head); Circular permutant F1-GG-F2; A signal peptide for secretion was added; Tags are thrombin-cleavable: held by the His-tag in the kinetic BLI; said to be cleaved before SEC, EM and immunisation; …
T3 chain: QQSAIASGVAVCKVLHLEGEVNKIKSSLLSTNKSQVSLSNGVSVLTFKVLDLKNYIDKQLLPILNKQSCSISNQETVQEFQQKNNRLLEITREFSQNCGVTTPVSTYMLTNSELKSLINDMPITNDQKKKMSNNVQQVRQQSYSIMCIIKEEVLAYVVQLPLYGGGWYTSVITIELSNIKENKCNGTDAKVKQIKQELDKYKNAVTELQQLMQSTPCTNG

[7] = target: T4, head-only RSV F immunogen i-210 (Human respiratory syncytial virus A, …, S155C | S190F | V207L | S290C | L258K); assay: as above; conditions: both partners purified
T4 construct: RSV fusion (F) glycoprotein, subtype A strain A2, F1 segment of domain III (head); numbers count on: PDB entry 4JHW; linker; RSV fusion (F) glycoprotein, subtype A strain A2, F2 segment of domain III (head); linker to the foldon; bacteriophage T4 foldon trimerization domain (of fibritin); Circular permutant F1-GGSGG-F2-GGSGGSG-foldon; A signal peptide for secretion was added; Tags are …
T4 chain: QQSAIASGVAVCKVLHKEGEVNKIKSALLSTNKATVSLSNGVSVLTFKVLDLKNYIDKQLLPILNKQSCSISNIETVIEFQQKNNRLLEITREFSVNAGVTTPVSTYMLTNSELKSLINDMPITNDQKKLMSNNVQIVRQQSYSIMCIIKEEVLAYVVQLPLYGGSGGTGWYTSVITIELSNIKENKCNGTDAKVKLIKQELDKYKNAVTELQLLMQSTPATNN

Molecule	percent of particles with bound Fab [1] [%]	Kd [2] [nM]	Kd [3] [nM]	Kd [4] [nM]	Kd [5] [nM]	Kd [6] [nM]	Kd [7] [nM]
motavizumab Fab	< 10	1360	761	–	–	–	–
B1	–	–	–	6.5	0.5	–	–
B2	–	–	–	9.9	0.7	33.3	0.7
